{"source": "the DeepSol protein solubility set"}
{"assay": "soluble on expression in E. coli; label from the status in PepcDB or PDB records"}
{"sequence": "MGSDKIHHHHHHMNPELLQKYIAGNATEAEKQRVTEWIQENPENMREYMAQRKLHDMALWRTEPVAEENSRERKHFSLRGVCMEAAKIAAVLAIVLLGTHYWTGKHQVPEDKTWQSIYVPAGQRAELMLADGTKVWLNSRSTLTFPGSFKGNIRNVKLDGEGYFAVTKNVEQPFIVETNKCNVKVLGTEFNVMAYAADSVWETSLLEGAVEILVPGSNNSGMRLEPNMMASLKGNRLVKGRIKEVDYFLWREGLLCFNDISVRDMIEKLKLYYGVDIVVNNTRILKNRYTGKFRTKDGVEHVLKVLRLNNKFTYTKDDETNVITIN", "soluble on expression in E. coli": "not soluble"}
{"sequence": "MGSDKIHHHHHHMKDKDINNDFNHIFPKDIRDDFLFSLDSYRLFLEGLSINPSLFYQKWSDVHLQSIIDKYWKPTQKSDWKWSLALPIFSLLENYINTFNKPIIIGFSGLPGSGKSTLGLWIDSVARELSLDIKVISLDDFYLPGHEMDVAMTGNPWNVPRGFPGSHSLDLLNQSLDVFLKTGVLNSPTFDKSLRDGKGDRSGWCDSQPRVLILEGWFVGCEAVSDLSKIDSMAADEFNLSLSQSEKDYRILIQESLFEYSHIWKKFEKIWHLKSSQFNNTILWKSQQEGEMIKLKGSGLKGNNLSNFIRMIQTSIPQQSLSFINSDTTVGINQDRRINFLKTSKYYF", "soluble on expression in E. coli": "not soluble"}
{"sequence": "MSLHDLLMIDGLQYSNWSQDIFQQMQAGGLSAVHATIAYHENARETLSRLGEWNRRFETWPELIRPVRTASDIRLAHEEGRVGIFFGFQNCSPIEDDIALVEVFRQLGVFVMQLTYNNQSLLASGCYEREDNGISRFGRQVIAEMNRVGMLIDMSHSAERSTLEAIELSSRPVIISHANPASFHAAKRNKSDAVLRGIAESGGLLGFSTYPFHLKGASDCSLESFCDMVARTADLMGVEHIGIGTDLCQAQPLSVLEWMRNGRWSKDKDYGEGSRDNANWPAPLQWFRDSRDLRNIAQGLRARGFAEHDVGNIMGLNWLRLLETATTAQAEGHHHHHH", "soluble on expression in E. coli": "soluble"}
{"sequence": "MNAVAPLIPCIVSGGSGTRLWPVSRESMPKPFMRLADDQSLLQKTFLRIAGLPDVARLLTVTNRDLLFRTLDDYRAVNRSGLAQDLLLEPVGRNTAPAIAAAALHVQEHFGDQAQLLILPADHLIRDEQAFAAAVAEARGLAAQGYLVTFGITPERAETGFGYIEQGAPLGNGFRVARFVEKPDQATAQSYLDSGKYLWNAGMFCFQAATVLQELERHAPEVLIAARAALADGSSLENGQCRQRELAAGAFAEAPDISVDYALMERSDKVAVVPCSIGWSDIGSWQALRELSAADENGNQVRGESVLHDVSNCYIDSPKRLVGAVGVHDLIIVDTPDALLVADAARSQDVKFVAQELKRRGHDAFRLHRTVSRPWGTYTVLEEGRRFKIKRIVVRPKASLSLQMHHHRSEHWIVVSGMALVENGEREFLLNTNESTFIPAGHSHRLSNPGIIDLVMIEVQSGEYLGEDDIVRFNDIYGRAPASDEKK", "soluble on expression in E. coli": "not soluble"}
{"sequence": "MGSDKIHHHHHHMSVNPLFKVILHPFIKESIASLKAMTNLTGVAGDPFMDKVEDFRFKGYAVCSDVTGSLDGVIMMHHYPETAIAIGNSVCQNMFNETYAFDAINDDLRNALAEWGNTIVGRSTDLHSRHKLEYGFSSPYFVEDLTEMDKYLVGVKQVITVPIMVEGIGRYYFNLLIRDVVEQVANVDIDAQSIDVENTHTTPLPLTSTVLVVDDSAMIRKAISRFLNNLGYHNVIEADDGIGAIEAVKAGKVDFIFMDVVMTRLNGDAALAELRNMGSQVPVVMLSSVTDNILVKQCQKHGISGFIFKPINANNGAETIAKYLKIAAAVAI", "soluble on expression in E. coli": "not soluble"}
{"sequence": "MGSDKIHHHHHHMASPGSGFWSFGSEDGSADPENPGTARAWCQVAQKFTGGIGNKLCALLYGDSGKPAEGGGSVTSRAATGKVACTCDQKPCNCPKGDVNYAFLHATDLLPACDGERPTLAFLQDVMNILLQYVVKSFDRSTKVIDFHYPNELLQEYNWELADQPQNLEEILTHCQTTLKYAIKTGHPRYFNQLSTGLDMVGLAADWLTSTANTNMFTYEIAPVFVLLEYVTLKKMREIIGWPGGSGDGIFSPGGAISNMYAMLIARYKMFPEVKEKGMAAVPRLIAFTSEHSHFSLKKGAAALGIGTDSVILIKCDERGKMIPSDLERRILEVKQKGFVPFLVSATAGTTVYGAFDPLLAVADICKKYKIWMHVDAAWGGGLLMSRKHKWKLSGVERANSVTWNPHKMMGVPLQCSALLVREEGLMQSCNQMHASYLFQQDKHYDLSYDTGDKALQCGRHVDVFKLWLMWRAKGTTGFEAHIDKCLELAEYLYTIIKNREGYEMVFDGKPQHTNVCFWFVPPSLRTLEDNEERMSRLSKVAPVIKARMMEYGTTMVSYQPLGDKVNFFRMVISNPAATHQDIDFLIEEIERLGQDL", "soluble on expression in E. coli": "not soluble"}
{"sequence": "MFVQTTNQSNTLSNFILTCAFPAGAPVTNYPPSLSHTSSPGSSVYEASTKTEAVHKLESYQLQASRDPCTIPDELREEMKRMKRQEGAFKTALCLSHKRGKTCIYGEQCKFAHGVHELRCQQAKKNHRNYKTVLCDKFTTTGYCKYGIRCQFIHRSMDATNVTRPIDTADFKLDVQSDLSRAFALDSSSFLPNWHCSALLN", "soluble on expression in E. coli": "not soluble"}
{"sequence": "MMKTLLPFFGVVRVSGEDRQTFLHGQLSNDINNLQTGQACYATYNTPKGRVIANMIVVNRGGDLLLIMAQDLLEATVKRLRMFVLRAKAVFEILEDYAVGAELEASAEPLAAQEPNLAFAAQQDSDGICSIALPHGGILRIAPKNTLPPYDAAAENAWRLHEIRSGYPWICAATKETAVAQMLNQHIIGGVHFKKGCYPGQEIIARAQYRGQVKRGLAVLSGNSAAEAGSVLAADGEEAGIVLDSVQDSENFTALAVIKFSAAQKELTVPNGGIFKAVHLFFKTENAELEHHHHHH", "soluble on expression in E. coli": "soluble"}
{"sequence": "MGHHHHHHSHMHKSNFETLQHYLESQIIGQHDLVKQLLIALLADGHILVEGPPGLAKTRAVKSLSDCVEGDFHRIQFTPDLLPADLTGTDIFRPETGEFTFQSGPIFNSLILADEINRAPAKVQAAMLEAMAEKQVTAGRHTYALPELFLVMATQNPIEQEGTYPLPEAQLDRFLLHLEVDYPDAEHELAILRINRGEAKGECSIERPSLSQQDIFTARQEVLDIHMAEAIEQYIVRLVMATRRASEYDSELDKWLAMGVSPRATIALDRCARAHAWLAGRDFVSPEDVQAMAYPVLRHRLLLSYHAQAEGVTSNQVIDKLLNLVGSA", "soluble on expression in E. coli": "soluble"}
{"sequence": "AFKQLMFPFGMDSKMESGIVMPTTQFWNPIAINNVEAQNDFYSRENLAALKLLQKQAQEPEKLARLLEVYHESLGYNIVRRAEEAKVALSDQTAYCTGINLLSELIEVDVQRDEMIEAIESPKNKMTALVTEAVEQAGVKPDAIFMTGGSARSPILRDAVQTVLPNIPVVSGNYFGSVTAGLARWADVCFK", "soluble on expression in E. coli": "not soluble"}
{"sequence": "MLPQLKAQFKEREPDVREYNADILVVGGGLGGVAAALGALRNGRSVILTEAFEWIGGQLTSQAVPPDEHSWVEQFGITASYRALRTGVRQYYRDHYPLTDAARADLTLNPGDGNVSRLCHEPRVSLAVMEAMLAPFAAGGKLTILKPYEPIAADVEGDTVRAVTLRHCNTSDLVSCSARYIIDATELGDLLPLTATDYVTGFEAQSETGEPSAPAEAQPHNQQAVSICFAVDQVDGNHVIDKPARYDHWRQVAPEFWGGPLLSWDSPNPRTLERSRRFFDPNPVDNATRDVADQRHSAGDMSLWIFRRIAARHTFRPGAYASDICLVNWPMIDYFEAPIIDVTPEQYAERLADAASLSYSMFYWMQTEAPRPDGGQGFPGLRLRGDITGTEHGLAMAPYIRESRRIRALTTVVEQDLSLAVRGDRGAVHYPDSIGIGMYRIDLHPSTGGDNYIDVGACPFEIPLGALISRHKTNLLAASKNIGTTHITNGCYRLHPVEWNIGEVAGMLAAYCLDKGETPHGVHADEKRLAEFHTHIERQGVERHWPDIRGYLEHHHHHH", "soluble on expression in E. coli": "not soluble"}
{"sequence": "MSAAAAPDTARSGRWRVDTDPERVERDLTCLVLTLVELVRQLVERQCVRRMDQGDLSDEQIETLGLTLMRLEEAMTELCERFDLSPSDLNLDLGPLGTLLPVD", "soluble on expression in E. coli": "not soluble"}
{"sequence": "MSRIGLQQLNNSARNSPFGSEKATGTKQIPEPLKLTAQLKKYQPITPSPLASATTITPVLSPFDVFCDDDQEAKNVETQMFEYGTVSTQTIINVPHVQPKITEADLTSEKPTVNYLRVMADRLQMDLDDEMDRNQRLVAELGDLDEKMRKIDDDTEILLEVLADIDEEQQTDEEIGTAQL", "soluble on expression in E. coli": "not soluble"}
{"sequence": "MGSDKIHHHHHHMKNLFLFCRAGYEKECAAEIQQRAAEMNVGGFVKTTNNDAYVIYQCFEDDGADTLAKMLPLNSLIFARQMFAASELHSDLPEQDRVGPLVASLLEADVTKCGELRVETPDTNEAKELSAFCRKFTVPLRQGLKKVGVLLDKENGRRPIIHVCFVGPGKAYVGYSLSNNSSPHFMGIPRLRMAADAPSRSSLKLDEAFGAFLTKEEQEMRCRSGLKAVDLGACPGGWTYQLVRRGMMVAAVDNGPMDEKLMETGQVKHYRADGFRFEPPRKNIYWLVCDMVEKPSRVAELMEAWAINGWFKEAIFNLKLPMKSRYKEVRVILDTMGEIFKENEIDYRLQCKHLYHDRDEVTVHLWIFPEKGVSYAEMG", "soluble on expression in E. coli": "not soluble"}
{"sequence": "MLSVIGIGPGSQAMMTMEAIEALQAAEIVVGYKTYTHLVKAFTGDKQVIKTGMCREIERCQAAIELAQAGHNVALISSGDAGIYGMAGLVLELVSKQKLDVEVRLIPGMTASIAAASLLGAPLMHDFCHISLSDLLTPWPVIEKRIVAAGEADFVICFYNPRSRGREGHLARAFDLLAASKSAQTPVGVVKSAGRKKEEKWLTTLGDMDFEPVDMTSLVIVGNKTTYVQDGLMITPRGYTL", "soluble on expression in E. coli": "not soluble"}
{"sequence": "SLSKKSVQTLEDIARLANVSRSTVSRALNNSPLISKQTRERIQAIAREHNFCLNVSGRNLRLRSSRTIAFVAPMCFPPVASAEHLFGLEMLGAIWSGLHELNYDCLIVHSASQDTDWVHRYLHSGRVDGFILMESSFKQTQIEALVQMKVPFIVWGMPVSPFNYCSVTGDNVAGGRLATEYLIRTGRQRIAFLGGLKGTLTVENRFKGYEQALQLAGRALDPALIVYGDYTYASGAAGMQRLLERAPDLDAVFVNSDLMAIAAINVIQESGRSVPADIAVVGYDDLSIAGYATLPLTTIRQNIPLAGKLLAQNLIQHIETGLVTNVTVPVELVIRKSEG", "soluble on expression in E. coli": "not soluble"}
{"sequence": "MGSDKIHHHHHHMGVSKRTVMRYQTCREPGSLSASDKFKSVEAALESHVKEEEARYSGKGRGDGSLWHHLVRVARLAEKLGRSEGLDPATCRLAGLFHDAGKFSGGTYHQDDRPEEERSVDILVELAGKHDLDRDIVDRIARSFQQLYRDGENQTPLTRVLFDADNLDKLGFLGIANYFIKTGLRGKGVSANMLYQLTAELTYARHAADCMATPAGRELALRKAPETYRFILDLLQSLRDDGIFDFKVEEVMFDQLLLDVVSPYSCECRGTLERRLWNVRGIKCLEIHLEHSCPRCEARHEIRFCTPKLRTQGEKNTGDLFRTSQLDIRQAADSYF", "soluble on expression in E. coli": "not soluble"}
{"sequence": "MGWHFQQSVTMPSEWRTLALESDDSYNDFTVIMRRKLQENQVNVVNLEQNIPILRINKQITSDQVASIFKHGREAEKLLMLEVEATFRLANGESYPINAKVNRTFFDNARAALAKSEEREVIWNDMREQVARQLIVKIIALQNQIKRKLEHHHHHH", "soluble on expression in E. coli": "soluble"}
{"sequence": "MATNESIMTLPLASKFKAEARAMADRGLSTYEAVYQLNKLEEQDKPRADAIMALDESGDYQPLLRAMANVPCIDVGTAKSILSMTIEQERPKVAPELTAAFENFMDMHSPQAVSAGMAYDGRNQGDDGDIDRILKTI", "soluble on expression in E. coli": "soluble"}
